Measured values published in the supplement of paper PMC9170038.

Test system: MS2 coat protein
Test: apparent KD of MS2 coat protein; designed switch direction (-1 OFF switch, 1 ON switch): -1; higher = weaker reporter binding
How it was run: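 Apparent KD, taken as the median over clusters for each design, was obtained by curve-fitting normalised cluster fluorescence. Designed RNA switches had been transcribed on Illumina chips by stalled E. coli RNA polymerase and titrated with SNAP-549-labelled MS2 coat protein, doubling from 0.7 or 1.5 nM to 3 µM.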

[1] = Eterna round: R95, input ligand: FMN 200 uM
[2] = Eterna round: R95, input ligand: microRNA oligo, concentration not stated
[3] = Eterna round: R95, input ligand: none
[4] = input ligand: microRNA oligo, concentration not stated

Row | Sequence | apparent KD of MS2 coat protein [1] [µM] | apparent KD of MS2 coat protein [2] [µM] | apparent KD of MS2 coat protein [3] [µM] | apparent KD of MS2 coat protein (input ligand: FMN 200 uM) [µM] | apparent KD of MS2 coat protein [4] [µM] | apparent KD of MS2 coat protein (input ligand: none) [µM]
1 | GAGGGACAUGAGGAUCACCCAUGUGAGGAUAUGUGAGAAGGAUUGGAGAGAAAAGGAAACAGAAGGCGCGGGAG [JR_Exclu1_Sub086] (puzzle: Exclusion 1) | 0.0595 | 0.0509 | 0.0547 |  |  | 
2 | UAAAAGCUAGGAUAUACAUGAGGAUCACCCAUGUCACGGGUGCCACACCGAAAGGUGCGUAGAAGGAGCCCAAA [Orrecedi] (puzzle: Exclusion 3) |  | 0.0384 |  |  |  | 
3 | GGGUGACAGUUAGGAUAUCUUAGCACGCCGUAGAGAGAAGGGACAUGAGGAUCACCCAUGUUGUAGUGCCUCCAGCACUGCUAG [Esrasoce] (Eterna round: R96, puzzle: Exclusion NG 1) |  |  |  | 0.105 | 0.034 | 0.0664
4 | GGGCCACAUGAGGAUCACCCAUGUGAGGAUAUCAUGCUUCGUAGUAAACUACGAAGUGUGAGAAGGCACAAUGG [Omei Ex1 C9] (Eterna round: R97, puzzle: Exclusion 1) |  |  |  | 0.444 |  | 0.143
5 | UAGCUUUAUGUUAGGAUAUUCGCGCAUAUACUGCCGAAGAAGGAACAUGAGGAUCACCCAUGUACACGCCUAUG [Eternabot (L1) Solution 60] (Eterna round: R97, puzzle: Brourd's mod of Exclusion 4) |  |  |  | 0.0811 |  | 0.0209
6 | CGGUGUAGAGGAUAUACGUGAAUUUUGUUAUUUUUUAAUUUACAUGAGGAUCACCCAUGUAGAAGGCUAUAGCG [JR_Ex2_Sub086] (Eterna round: R97, puzzle: Exclusion 2) |  |  |  | 0.0234 |  | 0.0219
7 | UGUUUAUAUGAAGGAUAUACUUAACAUGAGGAUCACCCAUGUGGUGUUGUGAGUGAGUGAGUUUAGUAGAAGGUCAAUUAUUUU [JMF's solution 31] (Eterna round: R96, puzzle: Exclusion NG 2) |  |  |  |  | 0.303 | 
8 | ACUUAUAGAGGAUAUACAGAAUAUUACAUGAGGAUCACCCAUGUUCUUCAAUGUAUAUUUGUAGAAGGCUAAGGAA [EX-5 Malc#7] (Eterna round: R96, puzzle: Exclusion 5) |  |  |  |  | 0.0466 | 
9 | GUAGAGUCAGGAUAUACGAGAUCGAAAGAUCAGUGAUCCUUACAUGAGGAUCACCCAUGUAGAAGGGACUCUAC [Omei mod 8 to Eli's favorate candidate (ch.parushev)] (Eterna round: R97, puzzle: Exclusion 2) |  |  |  | 0.0419 |  | 0.388
10 | GUGUAGAUAGGAUAUACAUGAGGAUCACCCAUGUGAAUAAGAUAGAAUAAGAUAAAGUGUAGAAGGGUUAGUGU [Excluse me!!! 19 - Jieux - Exclusion 3] (puzzle: Exclusion 3) | 0.0343 | 0.0302 | 0.0399 |  |  | 
11 | CCACCGCCGUCAGGAUAUAACAUGAGGAUCACCCAUGUGUGAAGCAUGAGAGACUCUAACAAGUGUUAGAAGGGACUUAUUGCG [Eternabot solution 36] (Eterna round: R96, puzzle: Exclusion NG 2) |  |  |  | 0.176 | 0.0632 | 0.0758
12 | GAAGAGACAGGAUAUACAUGAGGAUCACCCAUGUGAGUAAGGUAGAGGCGGAGGAGAUGUAGAAGGGUCAAAGA [JR_Exclu3_Sub016] (puzzle: Exclusion 3) | 0.0499 | 0.0356 | 0.0415 |  |  | 
13 | AGUACUAUCACGAAAGUGAUAGUACAAAUAAGCUUUAGAACAUGAGGAUCACCCAUGUCCUCUUAAGCUCGUCUUAU [Mat - Sensor v2 -ver2- JL mod - D56] (Eterna round: R96, puzzle: Sensor v2, turn-off variant 2) |  |  |  | 0.0149 | 0.143 | 0.0171
14 | CAGUACUGAGGAUAUACAUGAGGAUCACCCAUGUGUACCAGCUAGGAUACUAGCAAAAGUAGAAGGCAGUACUG [Mat - Exclusion 3 - Eli Mod - D21] (Eterna round: R97, puzzle: Exclusion 3) |  |  |  | 0.0312 |  | 0.0195
15 | AGUAGUUGUUUCCGUUCUUACAUGAGGAUCACCCAUGUUUCUUGACGUGCACGCGAUGCUCGUCAGACUACCAGAUG [salish99_TOv1_r3_057] (puzzle: Sensor v3, turn-off variant 1) | 0.0576 | 0.0878 | 0.0817 |  |  | 
16 | UCAUGUCCGGAGGAUAUGGCGCCCGUAAGGGCGCCAGAAGGCCGGACAUGAGGAUCACCCAUGUCGGCCUUCCC (Eterna round: R97, puzzle: Exclusion 6) |  |  |  | 0.0221 |  | 0.0284
17 | GGGCUCGGUCUUCCGGCUGGGUCCACAUGAGGAUCACCCAUGUAGGAUAUCCCGGCUGCCGGCCGGGAGAAGGGCGUGUGUUUC [-39.8, -36.9 kcal, 14% A] (Eterna round: R96, puzzle: Exclusion NG 3) |  |  |  | 0.0226 | 0.0133 | 0.0215

Row | Sequence | apparent KD of MS2 coat protein [1] [µM] | apparent KD of MS2 coat protein [2] [µM] | apparent KD of MS2 coat protein [3] [µM] | apparent KD of MS2 coat protein (input ligand: FMN 200 uM) [µM] | apparent KD of MS2 coat protein [4] [µM] | apparent KD of MS2 coat protein (input ligand: none) [µM]
18 | AAGAUGUGAGGAUAUCACGAGAACGUCACACGGACGCUCUCUGAGAAGGCACAUGAGGAUCACCCAUGUCCAAC [EX4 A.21] (Eterna round: R97, puzzle: Exclusion 4) |  |  |  | 0.207 |  | 0.0472
19 | AAUCCACAUGAGGAUCACCCAUGUGAGGAUAUGAUACUAUGUACUUCGGUACAUAGUAUCAGAAGGCACAAAGG [Ex1-3: 52] (puzzle: Exclusion 1) |  | 0.056 |  |  |  | 
20 | AAGAAACAUGAGGAUCACCCAUGUGAGGAUAUGAACAAGAAAAGAAAAGAAAGAAGAAUCAGAAGGCACAAAGG [salish99-ex1_r3_047] (puzzle: Exclusion 1) | 0.102 | 0.0492 | 0.0847 |  |  | 
21 | AUUCCAACUUGAGGAUAUUAGUGGAACAGCCACUGAGAAGGCAGAUAACACCCUCAUAAACAUGAGGAUCACCCAUGUAGGAGA [Eternabot solution 44] (Eterna round: R96, puzzle: Exclusion NG 1) |  |  |  | 0.132 | 0.0781 | 0.0863
22 | GCAGCUAACUGUGAUAACAGCACAUGAGGAUCACCCAUGUCUGAGGAUAUGGACUGGAUUACAGUCCAGAAGGCAGAAUGCUGC [Zipper Style 7] (Eterna round: R96, puzzle: Exclusion NG 3) |  |  |  | 0.0108 | 0.00887 | 0.0134
23 | CCUCUACAUGAGGAUCACCCAUGUGAGGAUAUCAAAAUCAGGGCGGCUCCCUGACCCAUGAGAAGGUGCAUGGA [EX1 A.5] (Eterna round: R97, puzzle: Exclusion 1) |  |  |  | 0.031 |  | 0.0168
24 | GAUUAUGCGAGCUUUAGGGACAUGAGGAUCACCCAUGUUCGUCUUAUUAGUCUGAAUACGCUGACAUACCUAAAUCU [JMF 95] (puzzle: Sensor v3, turn-off variant 1) | 0.0163 | 0.0195 | 0.0192 |  |  | 
25 | GGGCGGCGGACCGUGGCUUUUUGCUCGUCUUAUGCUUCGACAUGAGGAUCACCCAUGUGGUGGUGGUCCGUUGUGGG [Grok-var2-13 mod JAL] (puzzle: Sensor v3, turn-off variant 2) | 0.0184 | 0.0155 | 0.0208 |  |  | 
26 | UGAGCUUGUGUGAGGAUAUUUCGAGUGAAAGCUUGAGAGAAGGCACAUGAGGAUCACCCAUGUAAGCGAGUUCG [-26.1, -24 kcal, A 28%, 1bis-1] (Eterna round: R97, puzzle: Brourd's mod of Exclusion 4) |  |  |  | 0.0842 |  | 0.0868
27 | AUAGUAUAGCAAGGAUAUCGAUUUAGUUUGUUACGAGAAGGUGCUUUAGUUUAUACCUCUUGUUUACAUGAGGAUCACCCAUGU [JR_ExcNG1_Sub048] (Eterna round: R96, puzzle: Exclusion NG 1) |  |  |  |  | 0.0194 | 
28 | CAGUACUGAGGAUAUACAUGAGGAUCACCCAUGUGUUCCAGCUAGGAAACUAGCGAAAGUAGAAGGCAGUACUG [salish99_ex3_r3_068] (Eterna round: R96, puzzle: Exclusion 3) |  |  |  | 0.562 | 0.0199 | 0.0246
29 | GCAGCAACUCUAACCAACUAAACAUGAGGAUCACCCAUGUCUCAGGAUAUGGUCUGGAUUACAGGCCAGAAGGGAGAAAGCUGC [Eli exng3 - 042] (Eterna round: R96, puzzle: Exclusion NG 3) |  |  |  | 0.0124 | 0.0123 | 0.0126
30 | AGUUGGGAAGGAUAUACAUGAGGAUCACCCAUGUGAAAUUAUAGUGAGGAAAUGAAAAGUAGAAGGUCCUGACA [Mod of Mat 4 - Jieux - Exclusion 3] (Eterna round: R97, puzzle: Exclusion 3) |  |  |  | 0.147 |  | 0.0358
31 | GCUAAACAAGGAUAUACAUGAGGAUCACCCAUGUAGGCAUAGGGUGAAGCACGCCUAUGUAGAAGGUGUCCGCA [Eternabot (Original) Solution 34] (Eterna round: R97, puzzle: Exclusion 3) |  |  |  | 0.0806 |  | 0.185
32 | ACUCAGUGAGGAUAUCGCCAGAGAGCCACAACGGCCUCUGAUGAGAAGGCACAUGAGGAUCACCCAUGUAAGCA [EX4 C.2] (Eterna round: R97, puzzle: Exclusion 4) |  |  |  | 0.0454 |  | 0.252
33 | AUAAUGUAAGGAUAUAUGAAUCACGGUGAUACACCGUGAAGAUAGAAGGUACAUGAGGAUCACCCAUGUAAGGC [Mod of Anonveat 12 - Jieux - Exclusion 4] (Eterna round: R97, puzzle: Exclusion 4) |  |  |  | 0.0121 |  | 0.021
34 | AAGAAACAUGAGGAUCACCCAUGUGAGGAUAUGAAAAAGAAAAGAAAAGAAAGAAGAAUCAGAAGGCACAAAGG [Nebkaure Khety II] (Eterna round: R96, puzzle: Exclusion 1) |  |  |  |  | 0.0243 | 
